Measured values published in patent publication US12072338B2, “Pharmaceutical peptides for the treatment of inflammatory diseases” (PROTAGONISTS LTD., priority 2007, dated 2024).

Key:
[1] = target: T1, GRO-β (Homo sapiens, UniProt P19875); assay: Micro-array analysis of chemokine binding peptides: GRO-β
T1 construct: purchased 300-39
T1 sequence (P19875 35-107): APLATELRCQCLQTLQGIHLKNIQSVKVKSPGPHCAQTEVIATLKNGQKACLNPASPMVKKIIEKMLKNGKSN
Procedure: (§1) (1) Printing: Chemokine (CK) solution (in water) was serially diluted with Print Reagent (GenTel BioSurfaces USA) to final concentrations of 50 μg and 25 μg/ml. BSA/BSA-Biotin control solutions (in water) were diluted with Print Reagent to 100 μg/ml. Amplified stock of M13 phage control (M13KEgIII Cloning Vector, New England Biolabs, Cat.No.E8101S) was stored in Tris Buffered Saline (TBS; pH7.5, 4° C.) and diluted with Print Reagent to the working titre (10^8 pfu/μl). An automated spotting robot (16 pin print tool, 0.4 mm head; BioRobotics, UK) was used to print the CK/BSA control/M13 control, 5 repeats per sample (CK 25 μg/ml and 50 μg/ml; BSA 100 μg/ml; M13 20 μl), on PATH Protein Microarray Slides (GenTel, Prod.No. 2-1005/-1025) at […], and 50-70% relative humidity. Printed micro-array slides were stored at Room Temperature (RT) or 4° C. for at least 24 h before use.
(§2) (2) Blocking: Block Buffer (500 μl/partition; PATHblock, GenTel, Prod.No. 2-1014) was applied to the slide for 1 hour at room temp (RT). After removal of Block Buffer, the slide was air dried for 25 minutes;
(§3) (3) Phage Presented Peptide Binding: Amplified recombinant phage stock was stored in TBS and diluted with Wash Buffer to working titer (10^7 pfu/μl). Recombinant phage suspension (300 μl) was applied per partition and incubated at RT for 1 hour with gentle agitation.
(§4) (4) First Washing: The slides were washed twice with Wash Buffer 300 μl/partition).
(§5) (5) Primary Antibody (Ab) Labeling: The slides were incubated with the Primary Ab (1 mg/ml diluted ×2500 (Wash Reagent), 300 μl; Mouse Anti-M13 monoclonal Ab; Amersham Biosciences, UK; Product Code 27-9420-01) for 45 minutes at RT.
(§6) (6) Second Washing: The slides were washed twice with Wash Buffer (300 μl/partition).
(§7) (7) Secondary Ab Labeling: The slides were incubated with Secondary Ab (1.5 mg/ml diluted ×5000 (Wash Reagent), 300 μl; Cy3-conjugated AffiniPure Goat Anti-Mouse IgG; Jackson ImmunoReserch Labs, USA; Product Code 115-165-062).
(§8) (8) Third Washing: The slides were washed twice with Wash Buffer (300 μl/partition).
(§9) (9) Rinse: the slides were rinsed twice with Rinse Buffer (PATHrinse, GenTel, Prod.No. 2-1018) then dried well.
(§10) (10) Scanning: The peptide-bound, labeled slide was scanned (Laser Intensity 80%, Gain 80%, Resolution 10 μm) with a ScanArray Life Scanner (Packard BioChip Technologies, USA).
(§11) (11) Analysis: Quantitative analysis of micro-array was performed by the SpotReader program of Niles Scientific (USA) and presented as Relative Fluorescence (RF) as a function of CK concentration. Micro-array readout (Cy3 fluorescence) was quantified to determine the relative binding affinities of a CBP for the CKs and by inference, the specificity of the CBP for binding to a CK.

[2] = system: IL-8; assay: Micro-array analysis of chemokine binding peptides: IL-8
Procedure: as §1, §2, §3, §4, §5, §6, §7, §8, §9, §10, §11

[3] = target: T2, Mig (Homo sapiens, UniProt Q07325); assay: Micro-array analysis of chemokine binding peptides: Mig
T2 construct: purchased 300-26
T2 sequence (Q07325 23-125): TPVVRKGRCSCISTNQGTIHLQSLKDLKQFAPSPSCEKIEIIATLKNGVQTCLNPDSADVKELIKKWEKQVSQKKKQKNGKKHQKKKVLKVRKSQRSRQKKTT
Procedure: as §1, §2, §3, §4, §5, §6, §7, §8, §9, §10, §11

[4] = target: T3, I-TAC (Homo sapiens, UniProt O14625); assay: Micro-array analysis of chemokine binding peptides: I-TAC
T3 construct: purchased 300-46
T3 sequence (O14625 22-94): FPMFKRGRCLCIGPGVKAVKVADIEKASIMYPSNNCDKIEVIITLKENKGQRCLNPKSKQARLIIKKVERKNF
Procedure: as §1, §2, §3, §4, §5, §6, §7, §8, §9, §10, §11

[5] = target: T4, I-309 (Homo sapiens, UniProt P22362); assay: Micro-array analysis of chemokine binding peptides: I-309
T4 construct: purchased 300-37
T4 sequence (P22362 24-96): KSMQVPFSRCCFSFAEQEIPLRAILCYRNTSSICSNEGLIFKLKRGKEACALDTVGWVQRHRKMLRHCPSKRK
Procedure: as §1, §2, §3, §4, §5, §6, §7, §8, §9, §10, §11

[6] = target: T5, MCP-2 (Homo sapiens, UniProt P80075); assay: Micro-array analysis of chemokine binding peptides: MCP-2
T5 construct: purchased 300-15
T5 sequence (P80075 24-99): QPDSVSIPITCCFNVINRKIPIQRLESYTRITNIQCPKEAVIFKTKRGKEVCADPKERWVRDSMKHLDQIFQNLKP
Procedure: as §1, §2, §3, §4, §5, §6, §7, §8, §9, §10, §11

[7] = target: T6, MCP-4 (Homo sapiens, UniProt Q99616); assay: Micro-array analysis of chemokine binding peptides: MCP-4; conditions: limit = start of the upper 75% of that peptide's response range
T6 construct: purchased 300-24
Procedure: as §1, §2, §3, §4, §5, §6, §7, §8, §9, §10, §11

[8] = target: T7, RANTES (Homo sapiens, UniProt P13501); assay: Micro-array analysis of chemokine binding peptides: RANTES; conditions: limit = start of the upper 75% of that peptide's response range
T7 construct: purchased 300-06
T7 sequence (P13501 24-91): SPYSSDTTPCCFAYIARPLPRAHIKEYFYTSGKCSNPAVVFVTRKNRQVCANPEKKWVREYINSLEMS
Procedure: as §1, §2, §3, §4, §5, §6, §7, §8, §9, §10, §11

[9] = target: T8, Eotaxin (Homo sapiens, UniProt P51671); assay: Micro-array analysis of chemokine binding peptides: Eotaxin
T8 construct: purchased 300-21
Procedure: as §1, §2, §3, §4, §5, §6, §7, §8, §9, §10, §11

[10] = target: T9, Eotaxin 2 (Homo sapiens, UniProt O00175); assay: Micro-array analysis of chemokine binding peptides: Eotaxin 2
T9 construct: purchased 300-33
T9 sequence (O00175 27-119): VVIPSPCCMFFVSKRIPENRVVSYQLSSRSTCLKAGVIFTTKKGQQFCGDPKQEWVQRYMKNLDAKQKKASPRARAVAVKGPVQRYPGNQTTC
Procedure: as §1, §2, §3, §4, §5, §6, §7, §8, §9, §10, §11

[11] = target: T10, Eotaxin 3 (Homo sapiens, UniProt Q9Y258); assay: Micro-array analysis of chemokine binding peptides: Eotaxin 3
T10 construct: purchased 300-48
T10 sequence (Q9Y258 24-94): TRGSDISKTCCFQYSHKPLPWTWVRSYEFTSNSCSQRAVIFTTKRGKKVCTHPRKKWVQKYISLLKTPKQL
Procedure: as §1, §2, §3, §4, §5, §6, §7, §8, §9, §10, §11

[12] = target: T11, SDF1-α (Homo sapiens, UniProt P48061); assay: Micro-array analysis of chemokine binding peptides: SDF1-α
T11 construct: purchased 300-28a
Procedure: as §1, §2, §3, §4, §5, §6, §7, §8, §9, §10, §11

[13] = target: T12, SDF1-β (Homo sapiens, UniProt P48061); assay: Micro-array analysis of chemokine binding peptides: SDF1-β
T12 construct: purchased 300-28b
Procedure: as §1, §2, §3, §4, §5, §6, §7, §8, §9, §10, §11

[14] = target: T13, BCA-1 (Homo sapiens, UniProt O43927); assay: Micro-array analysis of chemokine binding peptides: BCA-1
T13 construct: purchased 300-47
T13 sequence (O43927 23-109): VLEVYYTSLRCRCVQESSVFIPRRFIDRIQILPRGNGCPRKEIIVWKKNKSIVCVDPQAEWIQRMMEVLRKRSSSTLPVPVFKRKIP
Procedure: as §1, §2, §3, §4, §5, §6, §7, §8, §9, §10, §11

[15] = target: T14, TECK (Homo sapiens, UniProt O15444); assay: Micro-array analysis of chemokine binding peptides: TECK
T14 construct: purchased 300-45
T14 sequence (O15444 24-150): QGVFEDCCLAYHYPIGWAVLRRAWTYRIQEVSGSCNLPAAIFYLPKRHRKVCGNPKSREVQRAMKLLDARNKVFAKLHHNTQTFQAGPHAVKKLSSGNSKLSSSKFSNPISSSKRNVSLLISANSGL
Procedure: as §1, §2, §3, §4, §5, §6, §7, §8, §9, §10, §11

[16] = target: T15, Fractalkine (Homo sapiens, UniProt P78423); assay: Micro-array analysis of chemokine binding peptides: Fractalkine
T15 construct: purchased 300-31
T15 sequence (P78423 25-100 limits assumed): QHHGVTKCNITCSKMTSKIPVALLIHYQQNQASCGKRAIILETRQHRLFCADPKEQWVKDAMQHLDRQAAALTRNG
Procedure: as §1, §2, §3, §4, §5, §6, §7, §8, §9, §10, §11

[17] = target: T16, Lymphotactin (Homo sapiens, UniProt P47992); assay: Micro-array analysis of chemokine binding peptides: Lymphotactin
T16 construct: purchased 300-20
T16 sequence (P47992 22-114): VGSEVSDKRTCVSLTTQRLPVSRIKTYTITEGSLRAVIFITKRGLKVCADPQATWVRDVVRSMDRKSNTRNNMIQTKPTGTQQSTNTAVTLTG
Procedure: as §1, §2, §3, §4, §5, §6, §7, §8, §9, §10, §11

[18] = target: T17, Exodus-2 (Homo sapiens, UniProt O00585); assay: Micro-array analysis of chemokine binding peptides: Exodus-2
T17 construct: purchased 300-35
T17 sequence (O00585 24-134): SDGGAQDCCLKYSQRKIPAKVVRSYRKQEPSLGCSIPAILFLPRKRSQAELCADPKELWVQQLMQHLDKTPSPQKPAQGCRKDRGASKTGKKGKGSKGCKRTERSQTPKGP
Procedure: as §1, §2, §3, §4, §5, §6, §7, §8, §9, §10, §11

[19] = target: T18, MCP-1 (Homo sapiens, UniProt P13500); assay: Micro-array analysis of chemokine binding peptides: MCP-1
T18 construct: purchased 300-04
Procedure: as §1, §2, §3, §4, §5, §6, §7, §8, §9, §10, §11

[20] = target: T19, MDC 69 (Homo sapiens, UniProt O00626); assay: Micro-array analysis of chemokine binding peptides: MDC 69
T19 construct: MDC(69aa), (CCL22 cat.no.300-36A); purchased 300-36A
T19 sequence (O00626 25-93): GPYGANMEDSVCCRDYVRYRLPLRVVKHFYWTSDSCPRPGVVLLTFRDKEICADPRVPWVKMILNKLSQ
Procedure: as §1, §2, §3, §4
(5) Primary Antibody (Ab) Labeling: The slides were incubated with the Primary Ab (1 mg/ml diluted ×2500 (Wash Reagent), 300 μl; Mouse Anti-M13 monoclonal Ab; Amersham Biosciences, UK; Product Code 27-9420-01) for 45 minutes at RT. […]
as §11

[21] = limit = start of the upper 75% of that peptide's response range

T8 sequence (P51671 24-97): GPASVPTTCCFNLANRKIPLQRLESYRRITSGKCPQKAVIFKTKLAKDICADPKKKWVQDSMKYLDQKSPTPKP
T6 sequence (Q99616 17-98): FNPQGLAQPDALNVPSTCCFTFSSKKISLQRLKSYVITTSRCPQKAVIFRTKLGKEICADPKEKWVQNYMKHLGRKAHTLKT
Sequence of IL-8 (P10145 28-99 limits assumed): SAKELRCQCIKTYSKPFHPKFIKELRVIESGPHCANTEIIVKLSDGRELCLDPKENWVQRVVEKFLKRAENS
T12 sequence (P48061 22-93): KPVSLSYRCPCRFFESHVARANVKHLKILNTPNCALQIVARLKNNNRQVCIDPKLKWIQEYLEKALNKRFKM
T11 sequence (P48061 22-89 limits assumed): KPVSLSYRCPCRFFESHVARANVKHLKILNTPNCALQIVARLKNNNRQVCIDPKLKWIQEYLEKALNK
T18 sequence (P13500 24-99): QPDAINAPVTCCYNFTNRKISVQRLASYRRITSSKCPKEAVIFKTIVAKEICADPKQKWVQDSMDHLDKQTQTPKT

DYDY (listed as Homo sapiens) [Ph-p32]
binding to GRO-β with relatively high affinity (Relative Fluorescence Units) [1, 21]: > 10,000 RFU | binding to IL-8 with relatively high affinity (Relative Fluorescence Units) [2, 21]: > 10,000 RFU | binding to Mig with relatively high affinity (Relative Fluorescence Units) [3, 21]: > 10,000 RFU | binding to I-TAC with relatively high affinity (Relative Fluorescence Units) [4, 21]: > 10,000 RFU | binding to I-309 with relatively high affinity (Relative Fluorescence Units) [5, 21]: > 10,000 RFU | binding to MCP-2 with relatively high affinity (Relative Fluorescence Units) [6, 21]: > 10,000 RFU | binding to MCP-4 with relatively high affinity (Relative Fluorescence Units) [7]: > 10,000 RFU | binding to RANTES with relatively high affinity (Relative Fluorescence Units) [8]: > 10,000 RFU | binding to Eotaxin with relatively high affinity (Relative Fluorescence Units) [9, 21]: > 10,000 RFU | binding to Eotaxin 2 with relatively high affinity (Relative Fluorescence Units) [10, 21]: > 10,000 RFU | binding to Eotaxin 3 with relatively high affinity (Relative Fluorescence Units) [11, 21]: > 10,000 RFU | binding to SDF1-α, stated in words [12]: bound | binding to SDF1-β, stated in words [13]: bound | binding to BCA-1, stated in words [14]: bound | binding to TECK, stated in words [15]: bound | binding to Fractalkine, stated in words [16]: bound | binding to Lymphotactin, stated in words [17]: bound | binding to Exodus-2, stated in words [18]: bound

HHTCSLHFP [Ph-p16]
binding to GRO-β, stated in words [1]: bound | binding to IL-8, stated in words [2]: bound | binding to Mig, stated in words [3]: bound | binding to I-TAC, stated in words [4]: bound | binding to I-309, stated in words [5]: bound | binding to MCP-1, stated in words [19]: bound | binding to MCP-2, stated in words [6]: bound | binding to MCP-4 with relatively high affinity (Relative Fluorescence Units) [7]: > 15,000 RFU | binding to RANTES with relatively high affinity (Relative Fluorescence Units) [8]: > 15,000 RFU | binding to Eotaxin, stated in words [9]: bound | binding to Eotaxin 2, stated in words [10]: bound | binding to Eotaxin 3, stated in words [11]: bound | binding to BCA-1, stated in words [14]: bound | binding to TECK, stated in words [15]: bound | binding to Fractalkine, stated in words [16]: bound | binding to Lymphotactin, stated in words [17]: bound | binding to MDC 69, stated in words [20]: bound
